Data taken from US20220356247A1 (NANJING IMMUNOPHAGE BIOTECH, published 2022).
Substitutions are numbered along the chain they refer to.

B1: anti-ROR1 antibody clone C3 (antibody, V domains shown)
VH: QVQLQESGPGLVKPSETLSLTCTVSGGSISSYYWSWIRQLPGKGLEWIGYMHYSGSTSYNPSLKGRLTISVDTSTNQFSLKLGSVTAADTAVYYCARYYYHDSSGYYSYFDYWGQGTLVTVSS
VL: EIVLTQSPGTLSLSPGERATLSCRASQSVSSYLAWYQQKAGQAPRLLIYDASNRASGIPARFSGSGSGTDFTLTISSLEPEDFAVYYCQQRSNWPPTFGGGTKVEIK
notes: Fully human clone from a naive phage library
B2: anti-ROR1 antibody clone G3 (antibody, V domains shown)
VH: QVQLQQWGAGLLKPSETLSLTCAVYGGSFSGYYWSWIRQPPGKGLEWIGEINHSGSTSYNPSLKSRVTISVDTSKNQFSLKLSSVTAADTAVYYCARGHSSGWYRRYFDLWGRGTLVTVSS
VL: B1 VL with G9A, A40P, S56T, R61K
notes: as for B1
B3: anti-ROR1 antibody clone G6 (antibody, V domains shown)
VH: EVQLVESGGGVVQPGGSLRLSCAASGFTFDDYAMHWVRQAPGKGLEWVSLISGDGGSTYYADSVKGRFTISRDNAKNSLYLQMNSLRAEDTAVYYCARDNWNDVYYYYGMDVWGQGTTVTVSS
VL: DIQLTQSPSSLSASIGDTVTISCQASRDISDYLNWYQHKPGKAPKLLIYDASNLATGVPSRFSGSGSGTDFTLTIKSLQPEDVATYFCQQDDLLPLTFGGGTKVDIK
notes: as for B1

target: T1, human ROR1 (human, UniProt Q01973 30-403, limits assumed); assay: affinity for human ROR1, method not stated
T1 construct: also called receptor tyrosine kinase-like orphan receptor 1
T1 sequence (Q01973 30-403 limits assumed): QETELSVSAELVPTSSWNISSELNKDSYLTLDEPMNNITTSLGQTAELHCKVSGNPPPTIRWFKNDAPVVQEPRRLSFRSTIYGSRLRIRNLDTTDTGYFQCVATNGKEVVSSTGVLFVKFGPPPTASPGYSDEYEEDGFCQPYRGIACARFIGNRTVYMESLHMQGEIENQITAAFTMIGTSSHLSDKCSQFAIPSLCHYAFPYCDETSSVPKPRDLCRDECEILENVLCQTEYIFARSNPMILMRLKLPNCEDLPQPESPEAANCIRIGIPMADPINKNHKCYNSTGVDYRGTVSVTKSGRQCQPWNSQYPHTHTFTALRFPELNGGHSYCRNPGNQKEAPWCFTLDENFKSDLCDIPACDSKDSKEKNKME

How did the Kd turn out when B1 was run?
The Kd was 3.25 nM.

Which Kd does the source give for B2 here?
The Kd was 4.48 nM.

Which Kd does the source give for B3 here?
Its Kd is 43.7 nM.
